Reference: patent US20170015742A1 (published 2017)

What was measured:
Human PDGF-BB = target: T1, Human PDGF-BB (human, UniProt P01127 82-190); experiment: SPR (Biacore), method of Example 1.1
T1 construct: also called hPDGF-BB
Procedure: (§1) Unreacted moieties on the biosensor surface were blocked with ethanolamine. For kinetic analysis, rate equations derived from the 1:1 Langmuir binding model were fitted simultaneously to multiple antigen injections (using global fit analysis) with the use of Scrubber 2 (BioLogic Software), Biacore Biaevaluation 4.0.1 software or Biacore T100 Evaluation software. Purified antibodies or DVD-Ig molecules were diluted in running buffer for capture across goat anti-human Fc reaction surfaces. Antibodies or DVD-Ig molecules to be captured as a ligand (1 μg/ml) were injected over reaction matrices at a flow rate of 10 μl/minute. During the assay, all measurements were referenced against the capture surface alone (i.e., with no captured antibody or DVD-Ig molecule). […] The equilibrium dissociation constant KD (M) of the reaction between antibodies and the target antigen was then calculated from the kinetic rate constants by the following formula: KD=Koff/Kₒₙ. Binding was recorded as a function of time and kinetic rate constants were calculated. In this assay, on-rates as fast as 10⁶M⁻¹s⁻¹ and off-rates as slow as 10⁻⁶ s⁻¹ could be measured.

Human VEGF-A 165 = target: T2, Human VEGF-A 165 (human, UniProt P15692 207-395); experiment: SPR (Biacore), method of Example 1.1
T2 construct: also called hVEGF165
Procedure: as §1

T1 sequence (P01127 82-190 limits assumed): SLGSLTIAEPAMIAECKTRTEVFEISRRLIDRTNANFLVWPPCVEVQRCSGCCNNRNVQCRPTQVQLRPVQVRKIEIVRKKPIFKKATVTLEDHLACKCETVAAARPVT
T2 sequence (P15692 other isoform, or with tags, fused parts or gaps limits assumed): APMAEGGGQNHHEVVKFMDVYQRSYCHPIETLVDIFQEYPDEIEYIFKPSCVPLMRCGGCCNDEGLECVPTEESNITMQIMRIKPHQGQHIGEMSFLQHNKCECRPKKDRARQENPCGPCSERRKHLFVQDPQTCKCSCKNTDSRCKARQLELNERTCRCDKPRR

Binder	Kd (Human PDGF-BB) [nM]	kon (Human PDGF-BB) [M⁻¹ s⁻¹]	Kd (Human VEGF-A 165) [nM]	kon (Human VEGF-A 165) [M⁻¹ s⁻¹]
CODV011 (bispecific antibody, human IgG1, kappa, L234A L235A, Anti-human VEGF-A/anti-human PDGF-BB cross-over DVD-Ig (CO-DVD-Ig); also called PR-1575521) heavy: EVQLVQSGSELKKPGASVKVSCKASGYTFTNYGMYWVRQAPGQGLEWMGWINTETGKPTYADDFKGRFVFSLDTSVSTAYLQISSLKAEDTAVYYCARTNYYYRSYIFYFDYWGQGTMVTVSSGGGGSGGGGSEFVLTQSPGTLSLSPGERATLSCERSSGDIGDSYVSWYQQKPGQAPRLVIYADDQRPSGIPDRFSGSGSGTDFTLTISRLEPEDFAVYYCQSYDINIDIVFGGGTKVEIKGGGSGASTKGPSVFPLAPSSKSTSGGTAALGCLVKDYFPEPVTVSWNSGALTSGVHTFPAVLQSSGLYSLSSVVTVPSSSLGTQTYICNVNHKPSNTKVDKKVEPKSCDKTHTCPPCPAPEAAGGPSVFLFPPKPKDTLMISRTPEVTCVVVDVSHEDPEVKFNWYVDGVEVHNAKTKPREEQYNSTYRVVSVLTVLHQDWLNGKEYKCKVSNKALPAPIEKTISKAKGQPREPQVYTLPPSREEMTKNQVSLTCLVKGFYPSDIAVEWESNGQPENNYKTTPPVLDSDGSFFLYSKLTVDKSRWQQGNVFSCSVMHEALHNAYTQKSLSLSPGK light: EVTLRESGPALVKPTQTLTLTCTFSGFSLSTYGMGVGWIRQPPGKALEWLANIWWDDDKYYNPSLKNRLTISKDTSKNQVVLTMTNMDPVDTATYYCARIESIGTTYSFDYWGQGTMVTVSSGGGGSGGGGSDTVLTQSPATLSLSPGERATLSCRASESVSTHMHWYQQKPGQAPRLLIYGASNLESGVPARFSGSGSGTDFTLTISSLEPEDFAVYFCQQSWNDPFTFGQGTKLEIKGGGSGRTVAAPSVFIFPPSDEQLKSGTASVVCLLNNFYPREAKVQWKVDNALQSGNSQESVTEQDSKDSTYSLSSTLTLSKADYEKHKVYACEVTHQGLSSPVTKSFNRGEC	0.0018	3.8e+07	0.038	1.1e+06
CODV012 (bispecific antibody, human IgG1, kappa, L234A L235A, Anti-human VEGF-A/anti-human PDGF-BB cross-over DVD-Ig (CO-DVD-Ig); also called PR-1571824) heavy: EVQLVQSGSELKKPGASVKVSCKASGYTFTNYGMYWVRQAPGQGLEWMGWINTETGKPTYADDFKGRFVFSLDTSVSTAYLQISSLKAEDTAVYYCARTNYYYRSYIFYFDYWGQGTMVTVSSGGGGSGGGEFVLTQSPGTLSLSPGERATLSCERSSGDIGDSYVSWYQQKPGQAPRLVIYADDQRPSGIPDRFSGSGSGTDFTLTISRLEPEDFAVYYCQSYDINIDIVFGGGTKVEIKGGGSGASTKGPSVFPLAPSSKSTSGGTAALGCLVKDYFPEPVTVSWNSGALTSGVHTFPAVLQSSGLYSLSSVVTVPSSSLGTQTYICNVNHKPSNTKVDKKVEPKSCDKTHTCPPCPAPEAAGGPSVFLFPPKPKDTLMISRTPEVTCVVVDVSHEDPEVKFNWYVDGVEVHNAKTKPREEQYNSTYRVVSVLTVLHQDWLNGKEYKCKVSNKALPAPIEKTISKAKGQPREPQVYTLPPSREEMTKNQVSLTCLVKGFYPSDIAVEWESNGQPENNYKTTPPVLDSDGSFFLYSKLTVDKSRWQQGNVFSCSVMHEALHNAYTQKSLSLSPGK light: EVTLRESGPALVKPTQTLTLTCTFSGFSLSTYGMGVGWIRQPPGKALEWLANIWWDDDKYYNPSLKNRLTISKDTSKNQVVLTMTNMDPVDTATYYCARIESIGTTYSFDYWGQGTMVTVSSGGGGSGGGDTVLTQSPATLSLSPGERATLSCRASESVSTHMHWYQQKPGQAPRLLIYGASNLESGVPARFSGSGSGTDFTLTISSLEPEDFAVYFCQQSWNDPFTFGQGTKLEIKGGGSGRTVAAPSVFIFPPSDEQLKSGTASVVCLLNNFYPREAKVQWKVDNALQSGNSQESVTEQDSKDSTYSLSSTLTLSKADYEKHKVYACEVTHQGLSSPVTKSFNRGEC	0.0015	7e+07	0.028	2.7e+06
CODV014 (bispecific antibody, human IgG1, kappa, L234A L235A, Anti-human VEGF-A/anti-human PDGF-BB cross-over DVD-Ig (CO-DVD-Ig); also called PR-1571826) heavy: EVQLVQSGSELKKPGASVKVSCKASGYTFTNYGMYWVRQAPGQGLEWMGWINTETGKPTYADDFKGRFVFSLDTSVSTAYLQISSLKAEDTAVYYCARTNYYYRSYIFYFDYWGQGTMVTVSSGGGGSEFVLTQSPGTLSLSPGERATLSCERSSGDIGDSYVSWYQQKPGQAPRLVIYADDQRPSGIPDRFSGSGSGTDFTLTISRLEPEDFAVYYCQSYDINIDIVFGGGTKVEIKGGSASTKGPSVFPLAPSSKSTSGGTAALGCLVKDYFPEPVTVSWNSGALTSGVHTFPAVLQSSGLYSLSSVVTVPSSSLGTQTYICNVNHKPSNTKVDKKVEPKSCDKTHTCPPCPAPEAAGGPSVFLFPPKPKDTLMISRTPEVTCVVVDVSHEDPEVKFNWYVDGVEVHNAKTKPREEQYNSTYRVVSVLTVLHQDWLNGKEYKCKVSNKALPAPIEKTISKAKGQPREPQVYTLPPSREEMTKNQVSLTCLVKGFYPSDIAVEWESNGQPENNYKTTPPVLDSDGSFFLYSKLTVDKSRWQQGNVFSCSVMHEALHNAYTQKSLSLSPGK light: EVTLRESGPALVKPTQTLTLTCTFSGFSLSTYGMGVGWIRQPPGKALEWLANIWWDDDKYYNPSLKNRLTISKDTSKNQVVLTMTNMDPVDTATYYCARIESIGTTYSFDYWGQGTMVTVSSGGGGSGGGDTVLTQSPATLSLSPGERATLSCRASESVSTHMHWYQQKPGQAPRLLIYGASNLESGVPARFSGSGSGTDFTLTISSLEPEDFAVYFCQQSWNDPFTFGQGTKLEIKGGGSGRTVAAPSVFIFPPSDEQLKSGTASVVCLLNNFYPREAKVQWKVDNALQSGNSQESVTEQDSKDSTYSLSSTLTLSKADYEKHKVYACEVTHQGLSSPVTKSFNRGEC	0.0024	5.5e+07	0.036	2.2e+06
